# Results taken from US6380373B1, “Steroid receptor coactivator compositions and methods of use” (Baylor College of Medicine, priority 1995, dated 2002).
# T1: TR (Homo sapiens, UniProt P10828)
# T1 sequence (P10828 1-461): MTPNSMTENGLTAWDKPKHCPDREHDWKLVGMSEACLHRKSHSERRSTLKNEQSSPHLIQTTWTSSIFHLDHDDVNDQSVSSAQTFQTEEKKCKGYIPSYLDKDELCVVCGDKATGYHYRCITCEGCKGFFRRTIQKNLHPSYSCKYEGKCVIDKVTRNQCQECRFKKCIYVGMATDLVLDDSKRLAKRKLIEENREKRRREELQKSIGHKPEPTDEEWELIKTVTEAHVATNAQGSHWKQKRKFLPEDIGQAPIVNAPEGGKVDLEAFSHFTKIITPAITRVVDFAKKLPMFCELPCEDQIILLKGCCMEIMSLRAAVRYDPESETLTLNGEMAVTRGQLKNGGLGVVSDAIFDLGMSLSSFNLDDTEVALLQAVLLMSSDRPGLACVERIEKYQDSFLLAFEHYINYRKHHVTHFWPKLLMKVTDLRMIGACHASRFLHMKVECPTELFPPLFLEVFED
# T2: E47 (Homo sapiens, UniProt P15923)
# T2 sequence (P15923 1-651 isoform P15923-2): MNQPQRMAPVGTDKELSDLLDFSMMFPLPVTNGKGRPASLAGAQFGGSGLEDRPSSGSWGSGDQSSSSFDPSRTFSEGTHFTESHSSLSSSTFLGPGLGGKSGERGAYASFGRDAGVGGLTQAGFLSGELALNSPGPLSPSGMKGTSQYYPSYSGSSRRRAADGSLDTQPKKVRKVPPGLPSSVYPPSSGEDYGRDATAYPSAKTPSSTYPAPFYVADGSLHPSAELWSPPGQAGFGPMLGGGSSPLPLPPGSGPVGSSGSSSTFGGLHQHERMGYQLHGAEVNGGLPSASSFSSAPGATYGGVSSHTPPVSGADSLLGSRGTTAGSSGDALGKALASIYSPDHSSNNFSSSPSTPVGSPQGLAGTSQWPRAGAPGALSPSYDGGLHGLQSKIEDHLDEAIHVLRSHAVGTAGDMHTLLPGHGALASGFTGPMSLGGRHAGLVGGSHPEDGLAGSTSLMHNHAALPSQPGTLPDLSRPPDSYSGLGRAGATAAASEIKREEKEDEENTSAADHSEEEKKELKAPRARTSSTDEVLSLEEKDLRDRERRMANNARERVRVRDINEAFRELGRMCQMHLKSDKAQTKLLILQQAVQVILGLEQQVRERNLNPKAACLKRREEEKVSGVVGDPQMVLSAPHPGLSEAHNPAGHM
# T3: hPR (Homo sapiens, UniProt P06401)
# T3 construct: expressed in transfected cells; host or cells: HeLa
# T3 sequence (P06401 1-933): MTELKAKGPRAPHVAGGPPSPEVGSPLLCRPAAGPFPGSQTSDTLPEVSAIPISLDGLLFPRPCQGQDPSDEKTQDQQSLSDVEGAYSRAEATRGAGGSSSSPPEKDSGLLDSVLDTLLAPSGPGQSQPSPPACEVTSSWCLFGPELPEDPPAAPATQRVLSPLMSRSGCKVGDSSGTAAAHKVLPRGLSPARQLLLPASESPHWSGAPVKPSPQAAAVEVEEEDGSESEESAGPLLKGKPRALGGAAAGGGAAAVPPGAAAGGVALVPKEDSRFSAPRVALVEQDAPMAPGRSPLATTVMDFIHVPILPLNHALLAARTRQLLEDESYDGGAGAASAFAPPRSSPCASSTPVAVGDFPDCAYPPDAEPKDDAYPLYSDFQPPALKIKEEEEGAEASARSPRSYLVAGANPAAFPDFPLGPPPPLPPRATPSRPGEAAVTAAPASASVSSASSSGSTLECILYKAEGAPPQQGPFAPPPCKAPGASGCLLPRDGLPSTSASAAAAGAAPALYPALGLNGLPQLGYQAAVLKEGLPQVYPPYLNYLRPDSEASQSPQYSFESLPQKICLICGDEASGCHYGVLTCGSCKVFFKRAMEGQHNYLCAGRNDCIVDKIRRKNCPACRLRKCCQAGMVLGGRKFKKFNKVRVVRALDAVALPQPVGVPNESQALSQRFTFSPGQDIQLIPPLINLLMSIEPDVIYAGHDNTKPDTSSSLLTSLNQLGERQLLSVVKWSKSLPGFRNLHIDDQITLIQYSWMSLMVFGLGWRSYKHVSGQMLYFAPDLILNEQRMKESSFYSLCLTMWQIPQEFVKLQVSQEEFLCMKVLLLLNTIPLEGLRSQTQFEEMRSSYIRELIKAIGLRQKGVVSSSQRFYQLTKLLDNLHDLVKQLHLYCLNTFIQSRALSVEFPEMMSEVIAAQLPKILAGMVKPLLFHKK
# Legend:
# Format in all cases: cell-based
# [1] = biological target: T1, TR; experiment: CAT reporter assay TR/DR4-tk-CAT in HeLa cells; set-up: expressed in transfected cells; settings: 3 μg SRC-1, Triac 2×10^−8 M
# Method: Biol. 13, 6501-6508), Sp1 and Sp1-tk-CAT (Courey, A. J. and Tjian, R. (1988), Cell 55, 887-898), CREB and CRE-tk-CAT (Chrivia, J. C. et al., (1993), Nature 365, 855) and GAL4VP16 and 17mer-tk-CAT (Baniahmad, A. et al., (1992), EMBO J. 11, 1015-1023) have been previously described and the above references are incorporated herein by reference in their entirety, including any drawings.
# (§1) Lipofectin (GibcoBRL) was selected for transfection of Hela cells.
# HeLa cells were cotransfected with 0.5 μg of cDNAs encoding various steroid receptors indicated and 5 μg of their cognates HREs containing reporters, including PR/PRE2-TATA-CAT, ER/ERE2-TATA-CAT, GR/PRE2-TATA-CAT, TR-/DR4-tk-CAT and RXR/DR1-tk-CAT, along with 3 μg of SRC-1 or empty expression vector. Cells were then treated with their corresponding ligands (PR:R5020, ER:estradiol, GR:dexamethasone, TR:Triac, RXR:9-cis retinoic acid) at a concentration of 2×10^−8M. The CAT activity of the reporter was determined using 14 μg of protein extract.
# [2] = system: CREB; experiment: CAT reporter assay CREB/CRE-tk-CAT in HeLa cells, with and without forskolin; settings: without and with 1 μM forskolin
# Method: as §1
# The CAT activity of the reporter was determined.
# [3] = biological target: T2, E47; experiment: Effect on the transcriptional activity of E47
# [4] = biological target: T3, hPR; experiment: Transient transfection CAT reporter assay, hPRB with PRE2-TATA-CAT in HeLa cells
# Method: as §1
# To further investigate the role of SRC-1 in receptor transactivation of target gene expression, transient transfection assays were carried out in mammalian cell lines. HeLa cells were cotransfected with mammalian expression vectors for full-length SRC-1 and hPRB together with a plasmid containing two copies of the progesterone-responsive DNA element (PRE) inserted in front of the TATA box of the E1b adenovirus, linked to the chloramphenicol acetyl transferase (CAT) reporter gene, PRE2-TATA-CAT.
# Cells were harvested 42 h after transfection and the chloramphenicol acetyl transferase (CAT) activity determined using 8 μg of protein extract.
molecule,measurement,setting,value
"steroid receptor coactivator-one (SRC-1), full-length (protein) MSIPRVNPSVNPSISPAHGVARSSTLPPSNSNMVSTRINRQQSSDLHSSSHSNSSNSQGSFGCSPGSQIVANVALNKGQASSQSSKPSLNLNNPPMEGTGISLAQFMSPRRQVTSGLATRPRMPNNSFPPNISTLSSPVGMTSSACNNNNRSYSNIPVTSLQGMNEGPNNSVGFSASSPVLRQMSSQNSPSRLNIQPAKAESKDNKEIASTLNEMIQSDNSSSDGKPLDSGLLHNNDRLSDGDSKYSQTSHKLVQLLTTTAEQQLRHADIDTSCKDVLSCTGTSNSASANSSGGSCPSSHSSLTARHKILHRLLQEGSPSDITTLSVEPDKKDSASTSVSVTGQVQGNSSIKLELDASKKKESKDHQLLRYLLDKDEKDLRSTPNLSLDDVKVKVEKKEQMDPCNTNPTPMTKATPEEIKLEAQSQFTADLDQFDQLLPTLEKAAQLPGLCETDRMDGAVTSVTIKSEILPASLQSATARPTSRLNRLPELELEAIDNQFGQPGTGDQIPWTNNTVTAINQSKSEDQCISSQLDELLCPPTTVEGRNDEKALLEQLVSFLSGKDETELAELDRALGIDKLVQGGGLDVLSERFPPQQATPPLIMEERPNLYSQPYSSPFPTANLPSPFQGMVRQKPSLGTMPVQVTPPRGAFSPGMGMQPRQTLNRPPAAPNQLRLQLQQRLQGQQQLIHQNRQAILNQFAATAPVGINMRSGMQQQITPQPPLNAQMLAQRQRELYSQQHRQRQLIQQQRAMLMRQQSFGNNLPPSSGLPVQTGNPRLPQGAPQQFPYPPNYGTNPGTPPASTSPFSQLAANPEASLANRNSMVSRGMTGNIGGQFGTGINPQMQQNVFQYPGAGMVPQGEANFAPSLSPGSSMVPMPIPPPQSSLLQQTPPASGYQSPDMKAWQQGAIGNNNVFSQAVQNQPTPAQPGVYNNMSITVSMAGGNTNVQNMNPMMAQMQMSSLQMPGMNTVCPEQINDPALRHTGLYCNQLSSTDLLKTEADGTQQVQQVQVFADVQCTVNLVGGDPYLNQPGPLGTQKPTSGPQTPQAQQKSLLQQLLTE",effect on TR transcriptional activity,[1],enhance
same,effect on basal and forskolin-stimulated transcriptional activities of CREB,[2],did not affect
same,effect on E47 transcriptional activity,[3],did not alter
same,effect on reporter construct activity in the absence of PR binding site,"[4]; ERE2-TATA-CAT reporter with hPRB, with or without ligand",no effect
same,effect on PR transcriptional activity,"[4]; HeLa cells, 3 μg SRC-1, R5020 2×10^−8 M, PRE2-TATA-CAT",enhance
same,effect on RU486-antagonized receptor transcriptional activity,"[4]; HeLa cells, SRC-1 coexpressed, R5020 plus RU486",unable to augment and/or recover to any extent
same,induction over the hormone-induced receptor activity,"[4]; HeLa cells, full-length SRC-1 cDNA (3 μg) coexpressed with hPR, 2×10^−8 M R5020, mean of seven experiments ± SEM",14.0±3.3 fold
same,activity of ligand-free hPR on the reporter,"[4]; HeLa cells, no hormone, in the absence or presence of SRC-1",minimal activity
same,enhancement of hormone-induced transcriptional activity,"[4]; coexpression of SRC-1 with receptor in mammalian cells, summary statements",> 10 fold
